According to paper PMC6706414:

Target: Mimic of H2B ubiquitinated nucleosome core particle with H3K36M (ubiquitin fused to H2A R17, H2B, H3K36M, H4, 149 bp 601 DNA) (S. cerevisiae | Xenopus laevis) (UniProt P0CG63)
Assay: native gel or EMSA; native PAGE; NCPs and Set2 incubated for 1 h on ice in 25 mM HEPES, pH 7.5, 50 mM NaCl, 1 mM DTT, 160 μm SAM

UniProt P0CG63, sequence (P0CG63 whole entry, looked up, the tested form may be a part): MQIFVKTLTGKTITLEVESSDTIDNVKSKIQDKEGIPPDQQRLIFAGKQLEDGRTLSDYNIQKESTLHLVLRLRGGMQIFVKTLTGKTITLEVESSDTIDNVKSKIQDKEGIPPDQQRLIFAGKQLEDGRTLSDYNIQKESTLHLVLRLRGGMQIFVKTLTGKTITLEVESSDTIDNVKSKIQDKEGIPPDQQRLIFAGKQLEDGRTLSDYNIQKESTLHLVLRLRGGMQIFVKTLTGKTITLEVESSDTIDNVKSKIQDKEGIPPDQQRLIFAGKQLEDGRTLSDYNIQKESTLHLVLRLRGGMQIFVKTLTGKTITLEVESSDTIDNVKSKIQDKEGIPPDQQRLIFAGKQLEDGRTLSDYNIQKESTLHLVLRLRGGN

Chaetomium thermophilum Set2 methyltransferase, full-length (enzyme)
percent of the NCP band shifted at twofold excess of Set2: 50%
